Data on 25 molecules can be found in patent US20240158455A1, “MULTIPLE SCLEROSIS ASSOCIATED AUTOANTIGENS, AND USE THEREOF IN THERAPY AND DIAGNOSIS” (NEOGAP Therapeutics AB, priority 2017, published 2024).

The chains are these.
B1: RTN3: recombinant full-length RTN3 (SEQ ID NO: 3) produced in E. coli (protein, listed as Homo sapiens)
chain: MAEPSAATQSHSISSSSFGAEPSAPGGGGSPGACPALGTKSCSSSCADSFVSSSSSQPVSLFSTSQEGLSSLCSDEPSSEIMTSSFLSSSEIHNTGLTILHGEKSHVLGSQPILAKEGKDHLDLLDMKKMEKPQGTSNNVSDSSVSLAAGVHCDRPSIPASFPEHPAFLSKKIGQVEEQIDKETKNPNGVSSREAKTALDADDRFTLLTAQKPPTEYSKVEGIYTYSLSPSKVSGDDVIEKDSPESPFEVIIDKAAFDKEFKDSYKESTDDFGSWSVHTDKESSEDISETNDKLFPLRNKEAGRYPMSALLSRQFSHTNAALEEVSRCVNDMHNFTNEILTWDLVPQVKQQTDKSSDCITKTTGLDMSEYNSEIPVVNLKTSTHQKTPVCSIDGSTPITKSTGDWAEASLQQENAITGKPVPDSLNSTKEFSIKGVQGNMQKQDDTLAELPGSPPEKCDSLGSGVATVKVVLPDDHLKDEMDWQSSALGEITEADSSGESDDTVIEDITADTSFENNKIQAEKPVSIPSAVVKTGEREIKEIPSCEREEKTSKNFEELVSDSELHQDQPDILGRSPASEAACSKVPDTNVSLEDVSEVAPEKPITTENPKLPSTVSPNVFNETEFSLNVTTSAYLESLHGKNVKHIDDSSPEDLIAAFTETRDKGIVDSERNAFKAISEKMTDFKTTPPVEVLHENESGGSEIKDIGSKYSEQSKETNGSEPLGVFPTQGTPVASLDLEQEQLTIKALKELGERQVEKSTSAQRDAELPSEEVLKQTFTFAPESWPQRSYDILERNVKNGSDLGISQKPITIRETTRVDAVSSLSKTELVKKHVLARLLTDFSVHDLIFWRDVKKTGFVFGTTLIMLLSLAAFSVISVVSYLILALLSVTISFRIYKSVIQAVQKSEEGHPFKAYLDVDITLSSEAFHNYMNAAMVHINRALKLIIRLFLVEDLVDSLKLAVFMWLMTYVGAVFNGITLLILAELLIFSVPIVYEKYKTQIDHYVGIARDQTKSIVEKIQAKLPGIAKKKAE
B2: FABP7 isoform 2. Full length: recombinant full-length human FABP7 isoform 2 (SEQ ID NO: 1) produced in E. coli; in b59 "FABP7" refers to PrEST data (protein, listed as Homo sapiens)
chain: MVEAFCATWKLTNSQNFDEYMKALGVGFATRQVGNVTKPTVIISQEGDKVVIRTLSTFKNTEISFQLGEEFDETTADDRNCKSVVSLDGDKLVHIQKWDGKETNFVREIKDGKMVMVSNDNSPFFLVFFSSPHTSHLLPSSSLLLPFFLLPSFFNNTSLARFFNYM
B3: PROK2: recombinant full-length PROK2 (SEQ ID NO: 2) produced in E. coli (protein, listed as Homo sapiens)
chain: MRSLCCAPLLLLLLLPPLLLTPRAGDAAVITGACDKDSQCGGGMCCAVSIWVKSIRICTPMGKLGDSCHPLTRKNNFGNGRQERRKRKRSKRKKEVPFFGRRMHHTCPCLPGLACLRTSFNRFICLAQK

For the first test, the system named is T-cells in PBMCs from MS patients and healthy controls. Put plainly: FluoroSpot with full-length recombinant antigens (52 patients, 24 controls), with ROC analysis. In kind it is cell-based, human. How it is done:
FIGS. 8A-8D. IFNγ/IL-22/IL-17 Fluorospot assay comparing T-cell activation in multiple sclerosis (MS)-patients and healthy controls when stimulated with full-length recombinant antigens (FABP7, PROK2, RTN3, SNAP91). Fifty-two Multiple Sclerosis patients and 24 healthy controls were tested for T-cell activation towards recombinant full-length versions of the autoantigens in a FluoroSpot assay. FIG. 8A: FABP7 isoform 2 (SEQ ID NO:1). FIG. 8B: PROK2 (SEQ ID NO:2). FIG. 8C: RTN3 SEQ ID NO:3. FIG. 8D: SNAP91 SEQ ID NO: 4. P-values calculated using Mann-Whitney test. Staples denote mean and C195%.
FIGS. 9A-9E. ROC-curves for the full-length antigens, Sensitivity and specificity when used as a diagnostic marker. Individually, the four antigens perform similarly as diagnostic markers for disease, all reaching a sensitivity of ˜50% with a specificity of 95%. FIG. 9A: FABP7 isoform 2. FIG. 9B: PROK2. FIG. 9C: RTN3. FIG. 9D: SNAP91. FIG. 9E: Using a combination of all four antigens as a diagnostic test achieves higher sensitivity and specificity. Specifically, utilizing the ratio of IL-17 divided by the square root of IFNγ response towards the mean response to the four antigens achieves a sensitivity of 70% with a specificity of >95%.
The full-length proteins can also be used in a similar way, see FIG. 9A-D. Utilizing all four full-length antigens, using each individual's average response to the four, increases the sensitivity and specificity further (FIG. 9E). Combining different readouts, such as analyzing the ratio between IL-17 and IFNγ, can increase the sensitivity of the test further (FIG. 9E, Table 2).
Recombinant full-length versions of the antigens FABP7 (SEQ ID NO: 1), PROK2 (SEQ ID NO: 2), RTN3 (SEQ ID NO: 3), SNAP91 (SEQ ID NO: 4) were produced in E. coli in house according to standard recombinant protein production protocols and purified via his-tag purification. 52 patients and 24 controls were tested for reactivity towards the antigens in an IFNγ/IL17/IL22 FluoroSpot assay as previously described.
A second, larger, cohort was collected in order to test the full length antigens. In this cohort, 52 patients and 24 healthy controls were included. The inclusion/exclusion criteria (table 5) as well as the sampling and PBMCs isolation were the same.
The antigens (FABP7, PROK2, RTN3 and SNAP91) picked out from the screening of PrESTs described in Example 1 and 2 were selected for further testing on the full-length versions of the protein. The full-length antigens were produced by transforming plasmids encoding the antigen and a […] into Escherichia coli. After growth, the bacteria were lysed and the protein purified from the supernatant of the bacterial lysis via 6× histidine-tag purification on an immobilized metal affinity chromatography-column. The antigens were subsequently coupled to beads and endotoxin-washed as previously described.
The FluoroSpot assay was performed under sterile conditions in a cell culture hood. The cells were thawed in a water bath at 37° C. and washed with cRPMI (RPMI 1640 medium, Sigma Aldrich, containing 10% fetal calf serum, 1% 200 mM L-Glutamine, 1% 10,000 U/ml Penicillin-10 mg/ml Streptomycin). The cells were counted manually using a light-microscope (Nikon TMS-F, Nikon, Japan) and subsequently diluted in cRPMI to a concentration of 2.5×10^6 cells/ml. The FluoroSpot plate (Human IFNγ/IL-22/IL-17A FluoroSpot kit, pre-coated, Mabtech, Sweden) was washed with PBS and then blocked with cRPMI for 30 min at room temperature. The blocking cRPMI was then discarded and 100 μl fresh cRPMI was added to each well of the FluoroSpot plate. Antigen (3×10^6 beads) was added to each well in duplicates according to a specific layout. In accordance to the manufacturer's protocol, anti-CD3 was used as a positive control. Both uncoupled beads and media without stimuli was used as negative controls. PBMCs (250,000 cells) in 100 μl cRPMI were added to each well (125,000 cells for the anti-CD3). […]
With B1, the “reactivity of MS patients PBMCs versus controls, IFNγ” value was “significantly higher reactivity”; the “reactivity of MS patients PBMCs versus controls, IL17 and IL22” value is given as “significantly higher reactivity”.

Turning to B2, the “reactivity of MS patients PBMCs versus controls, IFNγ” value is reported as “significantly higher reactivity”; the “reactivity of MS patients PBMCs versus controls, IL17 and IL22” value is listed as “significantly higher reactivity”.

B3: the “reactivity of MS patients PBMCs versus controls, IFNγ” value is reported as “significantly higher reactivity”; the “reactivity of MS patients PBMCs versus controls, IL17 and IL22” value is “significantly higher reactivity”.

Another test addresses HLA DRB5 01:01. Put plainly: competitive HLA binding assay (legend: - No binding).
For AVITGACDKDSQCGG (also called Pool 1 PROK2) [PROK2 peptide #1 (Aa 28-42 of SEQ ID NO: 2)], the binding result is recorded as “no binding”.

Take ERRKRKRSKRKKEVP (also called Pool 2 PROK2) [PROK2 peptide #12 (Aa 83-97 of SEQ ID NO: 2)]: the binding result is reported as “no binding”.

With CTPMGKLGDSCHPLT (also called Pool 1 PROK2) [PROK2 peptide #7 (Aa 58-72 of SEQ ID NO: 2)], the binding result was “no binding”.

On to KRSKRKKEVPFFGRR (also called Pool 2 PROK2) [PROK2 peptide #13 (Aa 88-102 of SEQ ID NO: 2)], for which the binding result was “no binding”.

On to SSLLLPFFLLPSFFN (also called Pool 6 FABP7) [FABP7 peptide #32 (Aa 141-155 of SEQ ID NO: 1)], for which the binding result is “no binding”.

Regarding SQCGGGMCCAVSIWV (also called Pool 1 PROK2) [PROK2 peptide #3 (Aa 38-52 of SEQ ID NO: 2)], the binding result is “no binding”.

As to IISQEGDKVVIRTLS (also called Pool 2 FABP7) [FABP7 peptide #9 (Aa 42-56 of SEQ ID NO: 1)], the binding result is “no binding”.

Turning to TKPTVIISQEGDKVV (also called Pool 2 FABP7) [FABP7 peptide #8 (Aa 37-51 of SEQ ID NO: 1)], the binding result was “no binding”.

As to LGEEFDETTADDRNC (also called Pool 3 FABP7) [FABP7 peptide #14 (Aa 67-81 of SEQ ID NO: 1)], the binding result was “no binding”.

For the molecule KLGDSCHPLTRKNNF (also called Pool 2 PROK2) [PROK2 peptide #8 (Aa 63-77 of SEQ ID NO: 2)], the binding result is recorded as “no binding”.

In the case of VREIKDGKMVMVSND (also called Pool 5 FABP7) [FABP7 peptide #25 (Aa 106-120 of SEQ ID NO: 1)], the binding result is listed as “no binding”.

In the case of QVGNVTKPTVIISQE (also called Pool 2 FABP7) [FABP7 peptide #7 (Aa 32-46 of SEQ ID NO: 1)], the binding result is “no binding”.

Regarding EISFQLGEEFDETTA (also called Pool 3 FABP7) [FABP7 peptide #13 (Aa 62-76 of SEQ ID NO: 1)], the binding result is “no binding”.

For ACDKDSQCGGGMCCA (also called Pool 1 PROK2) [PROK2 peptide #2 (Aa 33-47 of SEQ ID NO: 2)], the binding result is “no binding”.

Take GRRMHHTCPCLPGLA (also called Pool 3 PROK2) [PROK2 peptide #18 (Aa 100-114 of SEQ ID NO: 2)]: the binding result is recorded as “no binding”.

With TFKNTEISFQLGEEF (also called Pool 2 FABP7) [FABP7 peptide #12 (Aa 57-71 of SEQ ID NO: 1)], the binding result was “no binding”.

As for MVSNDNSPFFLVFFS (also called Pool 5 FABP7) [FABP7 peptide #27 (Aa 116-130 of SEQ ID NO: 1)], the binding result was “no binding”.

Turning to KALGVGFATRQVGNV (also called Pool 1 FABP7) [FABP7 peptide #5 (Aa 22-36 of SEQ ID NO: 1)], the binding result is listed as “no binding”.

Regarding IRTLSTFKNTEISFQ (also called Pool 2 FABP7) [FABP7 peptide #11 (Aa 52-66 of SEQ ID NO: 1)], the binding result was “no binding”.

Consider HLLPSSSLLLPFFLL (also called Pool 6 FABP7) [FABP7 peptide #31 (Aa 136-150 of SEQ ID NO: 1)], for which the binding result is on record as “no binding”.

With GNGRQERRKRKRSKR (also called Pool 2 PROK2) [PROK2 peptide #11 (Aa 78-92 of SEQ ID NO: 2)], the binding result is “no binding”.

As to HTCPCLPGLACLRTS (also called Pool 3 PROK2) [PROK2 peptide #19 (Aa 105-119 of SEQ ID NO: 2)], the binding result is reported as “no binding”.
